Three substances from US20250051455A1 can be followed below.

Assay [1] deals with recombinant soluble human HLA-G β2M MHC class I complex, monomer (human). Put plainly: SPR, reference antibody against monomeric wt HLA-G.
Assay [2] concerns the target recombinant soluble human HLA-G β2M MHC class I complex, dimer (human). Description: competition ELISA, one antibody concentration; competitor coated ILT2-Fc.
The target of assay [3] is recombinant soluble human HLA-G β2M MHC class I complex, monomer (human). The description is as above.
Assay [4] has as its target recombinant soluble human HLA-G β2M MHC class I complex, trimer (human). The description is as above.
For assay [5], the target named is human HLA-G expressed on cells (JEG3 natural; SKOV3 HLA-G+ and PA-TU-8902 HLA-G+ transfectants) (human) (UniProt P17693). Description: flow cytometry, JEG3 cells pre-incubated with antibody (40 µg/ml final); competitor ILT2-Fc chimera.
Assay [6] addresses recombinant soluble human HLA-G β2M MHC class I complex, dimer (human). Description: competition ELISA, one antibody concentration; competitor coated ILT4-Fc.
The target in assay [7] is recombinant soluble human HLA-G β2M MHC class I complex, monomer (human). Described as above.
Assay [8] concerns the target recombinant soluble human HLA-G β2M MHC class I complex, trimer (human). The description is as above.
Assay [9] addresses modified human HLA-G β2M MHC class I complex (HLA-G specific amino acids replaced by HLA-A consensus amino acids) (human). Put plainly: SPR, reference antibody against degrafted HLA-G.

As for G233 (antibody), in assay [1], the Kd is 20 nM. The koff in assay [1] came out at 0.0037 s⁻¹. Moreover, the kon in assay [1] was 180000 M⁻¹ s⁻¹. For the same substance, the t 1/2 in assay [1] was 3 min. Also, the % inhibition of ILT2 binding was -132% in assay [2], 12% in [3] and 3% in assay [4]. Besides, in assay [5], the Inhibition of ILT2 binding to Jeg3 cells was -55.8%. In addition, the % inhibition of ILT4 binding was -20% in [6], -898% in [7] and 58% in assay [8].
As to MEM-G/11 (antibody), in assay [1], the Kd was 12 nM, the koff was found to be 0.00085 s⁻¹, the kon is 74000 M⁻¹ s⁻¹ and the t 1/2 amounted to 14 min. In addition, in assay [9], the Kd was determined as 13 nM, the koff amounted to 0.0012 s⁻¹, the kon was determined as 89000 M⁻¹ s⁻¹ and the t 1/2 stood at 10 min.
In the case of MEM/G9 (antibody), the Kd came to 7.7 nM in [1] and 300 nM in [9]. In addition, the results for the koff in [1] and in assay [9] were 0.0011 s⁻¹ and 0.036 s⁻¹, respectively. The kon in [1] was 150000 M⁻¹ s⁻¹; in [9] it was 120000 M⁻¹ s⁻¹. The t 1/2 turned out to be 10 min in [1] and 0.3 min in [9]. The % inhibition of ILT2 binding in [2] is 1%; in [3], -442%; in [4], 4%. Besides, the Inhibition of ILT2 binding to Jeg3 cells in assay [5] was -27.9%. Also, the % inhibition of ILT4 binding in [6] is -44%; in assay [7], -14%; in assay [8] it was -40%.
